Measurements reported in the nanobody polyreactivity screen of Harvey et al. (2022).

assay: yeast display, Sf9 membrane polyspecificity reagent, FACS + sequencing; frameworks hold sequencing errors
Procedure, shortened: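 Synthetic nanobody libraries on Saccharomyces cerevisiae BJ5465 were galactose-induced for 36–48 hours, stained 1 hour at 4 °C with 10% biotinylated, detergent-solubilized Sf9 membrane reagent and enriched on streptavidin microbeads. FACS then separated cells into low and high (top ~1%) gates by anti-HA (expression) and streptavidin (reagent binding) fluorescence. Genes were colony-PCR amplified, MiSeq 2 × 250 sequenced and CDR-length filtered. A clone's polyreactivity label is that of its gate of origin.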

Row | Sequence | polyreactivity (PSR sort gate)
1 | QVQLVESGGGLVQAGGSLRLSCAASGRIFGHYAMGWYRQAPGKERELVAAINWRGGSTYYADSVKGRFTISRDNAKNTVYLQMNSLKPEDTAVYYCAAANFRSYLSQTGPRAYYYWGQGTQVTVSS | low polyreactivity
2 | QVQLVESGGGLVQAGGSLRLSCAASGRIFGHYAMGWYRQAPGKERELVAAISQSGTNTYYADSVKGRFTISRDNAKNTVYLQMNSLKPEDTAVYYCAAKPPRRYQLMDYWGQGTKVTVSS | high polyreactivity
3 | QVQLVESGGGLVQAGGSLRLSCAASGRIFGHYVMGWYRQAPGKERELVAGISSGGITYYADSVKGRFTISRDNAKNTVYLQMNSLKPEDTAVYYCAARVYYVRGSDTMDYWGQGTQVTVSS | low polyreactivity
4 | QVQLVESGGGLVQAGGSLRLSCAASGRIFGINAMGCYRQAPGKERELVAAINWSGGSTYYADSVKGRFTISRDNAKNTVYLQMNSLKPEDTEVYYCAAQKYKRVGYWGQVTQVTVSS | high polyreactivity
5 | QVQLVESGGGLVQAGGSLRLSCAASGRIFGINAMGWYRQAPGKERELVAAINWSGGSTYYADSVKGRFTISRDNAKNTVYLQMNSLKPEDTAVYYCAAQKYKRVGYWGQGTQVTVSS | high polyreactivity
6 | QVQLVESGGGLVQAGGSLRLSCAASGRIFGINAMGWYRQAPGKERELVAAITSGVSTNYADSVKGRFTISRDNAKNTVYLQMNSLKPEDTAVYYCATRRNRSYDYWGQGTQVTVSS | low polyreactivity
7 | QVQLVESGGGLVQAGGSLRLSCAASGRIFGIYAMGWHRQAPGKERELVASITDGTITNYADSVKGRFTISRDNAKNTVYLQMNSLKPEDTAVYYCAAGTQAHAYVVRPIEMDYSGQGTQVTVSS | low polyreactivity
8 | QVQLVESGGGLVQAGGSLRLSCAASGRIFGIYAMGWYRQAPGKERELVADIDVSDGSTYYADSVKGRFTISRDNAKNTVYLQMNSLKPEDTAVYYCNAEDSSRWYDWYLHDYWGQGTQVTVSS | high polyreactivity
9 | QVQLVESGGGLVQAGGSLRLSCAASGRIFGIYAMGWYRQAPGKERELVATITDSDDSTYYADSVKGRFTISRDNAKNTVYLQMNSLKPEDTAVYYCAAADGIYARYFFSRFPRFDYWGQGTQVTVSS | low polyreactivity
10 | QVQLVESGGGLVQAGGSLRLSCAASGRIFGKNAMGWYRQAPGKERELVAAISANGGSTSYADSVKGRFTISRDNAKNTVYLQMNSLKPEDTAVYYCNVRRQLRGDYWGHGTQVTVSS | high polyreactivity
11 | QVQLVESGGGLVQAGGSLRLSCAASGRIFGKYAMGWYRQAPGKERELVAAITRRGGSTYYADSVKGRFTISRDNAKNTVYLQMNSLKPEDTAVYYCNAALTGYRVSPTRHRYDYWGQGTQVTVSS | high polyreactivity
12 | QVQLVESGGGLVQAGGSLRLSCAASGRIFGKYVMGWYRQAPGKERELVAAISRSGGSTSYADSVKGRFTISRDNAKNTVYLQMNSLKPEDTEVYYCAAGFLSGWWFAYDYWGQGTQVTVSS | high polyreactivity
13 | QVQLVESGGGLVQAGGSLRLSCAASGRIFGLNAMGWSRQAPGKERELVASITYSGGSTYYADSVKGRFTISRDNAKNTVYLQMNSLKPEDTAVYYCAARIIVDDVGTKYYYWGQGTQVTVSS | high polyreactivity
14 | QVQLVESGGGLVQAGGSLRLSCAASGRIFGLNAMGWYRQAPGKERELVAAIDQGDGITYYADSVKGRFTISRDNAKNTVYLQMNSLKPEDTAVYYCAAEVSYKEIYQYYWIYPAYNYWGQGTQVTVSS | high polyreactivity
15 | QVQLVESGGGLVQAGGSLRLSCAASGRIFGLYALGWYRPAPGKEREFVAAIRWIGGGTYYADSVKGRFTISRDHAKNTVYLQINSLKPEDTAVDSCNVVTWYYVFRPWEYDYWGQGTQVTVSS | low polyreactivity
16 | QVQLVESGGGLVQAGGSLRLSCAASGRIFGLYAMGWYRHAPGKEREFVAANNWDGGSTFYADSVKGRFTISRDNAKNTVYLQMNSLKPEDTAVYSCAADVYSYVSYSTYVSVFTYDYWGQGTQVTVSS | low polyreactivity

Row | Sequence | polyreactivity (PSR sort gate)
17 | QVQLVESGGGLVQAGGSLRLSCAASGRIFGLYAMGWYRQAPGKERELVAGITYSGGTTYYADSVKGRFTISRDNAKNTVYLQMNSLKPEDTAVYYCNKRWYYQYGKYGYWGQGTQVTVSS | high polyreactivity
18 | QVQLVESGGGLVQAGGSLRLSCAASGRIFGLYAMGWYRQAPGKERELVATITRRAGSTYYADSVKGRFTISRDNAKNTVYLQMNSLKPEDTAVYYCAARSWANYDYWGQGTQVTVSS | high polyreactivity
19 | QVQLVESGGGLVQAGGSLRLSCAASGRIFGLYTMGWYRQAPGKEREFVAGITYSAGRTYYADSVKGRFTISRDNAKNTVYLQMNSLKPEDTAVYYCAATRRWYPTKLYGYWGQVTQVTVSS | high polyreactivity
20 | QVQLVESGGGLVQAGGSLRLSCAASGRIFGNNAMAWYRQATGKESELVAGISRTGGSTYYADSVKGRFTISRDNAKNTVYLQMNSLKPEDTAVFYCAALVYSGRYASYGYWGQGTQVTVSS | low polyreactivity
21 | QVQLVESGGGLVQAGGSLRLSCAASGRIFGPYAMGWYRQAPGKERELVAAISQRGGTTYYADSVKGRFTISRDNAKNTVYLQMNSLKPEDTAVYYCAAKTYGWGQGTQVTVSS | high polyreactivity
22 | QVQLVESGGGLVQAGGSLRLSCAASGRIFGPYTMGWYRQAPAKEREFVAAITRRGGSTYYADSVKGRFTISRDNAKNTVYLQMNSLKPEDTAVYYCAAVGLKRSLGYSWGQGTQVTVSS | low polyreactivity
23 | QVQLVESGGGLVQAGGSLRLSCAASGRIFGPYTMGWYRQAPGKERELVATISYSGSTTYYADSVKGRFTISRDNAKNTVYLQMNSLKPEDTAVYYCNAQYYVFITFDYWGQGTQVTVSS | high polyreactivity
24 | QVQLVESGGGLVQAGGSLRLSCAASGRIFGQYAMGWYRQAPGKERELVAAITYSTGSTSYADSVKGRFTISRDNAKNTVYLQMNSLKPEDTAVYYCATRKPSVRGVIPTRNSYYYWGQGTQVTVSS | high polyreactivity
25 | QVQLVESGGGLVQAGGSLRLSCAASGRIFGRNAMGWSRQAPGKERELVASITSGGSTNYADSVKGRFTISRYNAKNTVYLQMNSLKPEDTAVYYCNARWTGSYTSTGFRRRFDYWGQGTQVTVSS | high polyreactivity
26 | QVQLVESGGGLVQAGGSLRLSCAASGRIFGRNAMGWYRQAPGKEREFVAAITSSGGNTYYADSVKGRFTISRDNAKNTVYLQMNSLKPEDTAVYYCAARGARYCTSDYWGQGTQVTVSS | high polyreactivity
27 | QVQLVESGGGLVQAGGSLRLSCAASGRIFGRNAMGWYRQAPGKERELVAAISRRSVSTYYADSVKGRFTISRDIAKNTVYLQMNSLKPEETAVYYCAARKSLTTPYGYWGQGTQVTVSS | high polyreactivity
28 | QVQLVESGGGLVQAGGSLRLSCAASGRIFGRNAMGWYRQAPGKERELVAAISSSGGTYYADSVKGRFTISRDNAKNTVYLQMNSLKPEDTAVYYCNARVRTQQRWVDYWGQGTQVTVSS | high polyreactivity
29 | QVQLVESGGGLVQAGGSLRLSCAASGRIFGRNAMGWYRQAPGKERELVAAISSSGGTYYADSVKGRFTISRDNAKNTVYLQMNSLKPEDTAVYYCTARVRTQQRWVDYWGQGTQVTVSS | high polyreactivity
30 | QVQLVESGGGLVQAGGSLRLSCAASGRIFGRNVMGWYRQAPGKERELVAAITTGGGSTYYADSVKGRFTISRDNAKNTVYLQMNSLKPEDTAVYYCATDRRHEYSSRRYYYWGQGTQVTVSS | high polyreactivity
31 | QVQLVESGGGLVQAGGSLRLSCAASGRIFGRYAMGRYRRAPGKESEFVAAIDGGGGRTYADSVKGRFTISRDNAKNTVYLQMNSLKPEDTAVYYCNAYVYSIHWGDLYWSEYDYWGQGTQVTVSS | high polyreactivity
